Results taken from patent US20080025989A1 (Seagen, published 2008).

Tests used:
human CD70 [1] = target: T1, human CD70 (human, UniProt P32970 1-193); assay: cell-based or functional assay
T1 sequence (looked up): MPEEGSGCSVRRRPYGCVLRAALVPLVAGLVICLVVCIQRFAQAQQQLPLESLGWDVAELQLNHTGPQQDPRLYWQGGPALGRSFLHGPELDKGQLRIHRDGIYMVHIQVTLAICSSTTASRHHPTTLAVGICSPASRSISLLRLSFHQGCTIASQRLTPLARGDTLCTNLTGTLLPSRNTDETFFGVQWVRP

human CD70 [2] = target: T1, human CD70; assay: cell-based or functional assay; remark: listed apart in the source
human CD70 [3] = target: T1, human CD70; assay: cell-based or functional assay; remark: listed apart in the source
human CD70 [4] = target: T1, human CD70; assay: cell-based or functional assay; remark: listed apart in the source
human CD70 [5] = target: T1, human CD70; assay: flow cytometry on allo-activated T cells after 5 days of MLR
Excerpt: In the second system, an MLR was set up between PBMC and an irradiated allogeneic stimulator CESS. Allogeneic activation of peripheral blood T cells was achieved by conventional mixed lymphoycte reactions (MLR). MLR were initiated by mixing PBMCs and irradiated allogeneic Epstein-Barr virus (EBV)-transformed B lymphoblastoid CESS cells (ATCC, Manassas, Va.) at a ratio of one T cell to ten irradiated CESS cells. T cell density was adjusted to 0.25×10⁶ T cells/ml of RPMI-1640 supplemented with 10% FBS and 2 mM L-glutamine. Rapid proliferation and expansion of alloreactive T cells was observed after approximately 96 hours of culture. After 5 days of stimulation, cells were assessed for CD70 expression using the anti-CD70 mAb 1F6 by flow cytometry. […] In parallel cultures in 96-well plates, graded doses of either 1F6-vcMMAE or 1F6-vcAFP were included in the cultures at initiation. DNA synthesis was assayed during the last 16 hours of the 5-day culture by a pulse of ³H-TdR.

human CD70 [6] = target: T1, human CD70; assay: immunohistochemistry on frozen RCC tumor sections, 2 µg/ml
Protocol: Immunohistochemistry was used to determine if over-expression of CD70 transcript in RCC was paralleled by CD70 protein expression. Frozen RCC tissue sections and normal adjacent tissue sections from two patients independent of those used in CD70 transcript analysis (FIGS. 6 and 7) were fixed in acetone at −20° C. for 10 minutes. After rehydration in PBS, sections were blocked with PBS containing 5% normal goat serum and Avidin D for 30 minutes at room temperature, and washed in PBS. Sections were incubated with the anti-CD70 mAb 2F2 or non-binding IgG at 2 μg/ml in PBS containing 5% normal goat serum with biotin for 60 minutes at room temperature. After washes with PBS, biotinylated anti-mouse IgG (VECTASTAIN ABC Kit, Vector Laboratories, Burlingame, Calif.) at a 1:250 dilution in PBS containing 5% normal goat serum was used to detect bound primary antibody by incubating for 30 minutes at room temperature. Excess biotinylated anti-mouse IgG was removed by PBS washes. Sections were quenched with 1% H₂O₂ in PBS for 30 minutes at room temperature, washed, and then incubated with the VECTASTAIN ABC complex made up according to the manufacturer's instructions. After PBS washes, sections were incubated for 30 minutes at room temperature with the DAB solution (VECTASTAIN ABC Kit) made up according to the manufacturer's instructions for color development. […]

B1: 1F6-vcAFP (antibody, V domains shown)
VH: QIQLVQSGPEVKKPGETVKISCKASGYTFTNYGMNWVKQAPGKGLKWMGWINTYTGEPTYADAFKGRFAFSLETSASTAYLQINNLKNEDTATYFCARDYGDYGMDYWGQGTSVTVSS
VL: DIVLTQSPASLAVSLGQRATISCRASKSVSTSGYSFMHWYQQKPGQPPKLLIYLASNLESGVPARFSGSGSGTDFTLNIHPVEEEDAATYYCQHSREVPWTFGGGTKLEIKR
modifications: maleimidocaproyl-val-cit-AFP on cysteine thiols of the DTT-reduced antibody (positions not stated)
IC50, cytotoxicity (alamarBlue) on CD70+ RCC lines (human CD70 [1]): < 0.02 µg/mL | IC50, proliferation of activated CD70-expressing T cell clones C2A, 40D8 and 4.01.1 (human CD70 [1]): < 0.05 µg/mL

B2: chimeric 1F6(c1F6)-vcMMAF4 (antibody, V domains shown)
VH: QIQLVQSGPEVKKPGETVKISCKASGYTFTNYGMNWVKQAPGKGLKWMGWINTYTGEPTYADAFKGRFAFSLETSASTAYLQINNLKNEDTATYFCARDYGDYGMDYWGQGTSVTVSS
VL: DIVLTQSPASLAVSLGQRATISCRASKSVSTSGYSFMHWYQQKPGQPPKLLIYLASNLESGVPARFSGSGSGTDFTLNIHPVEEEDAATYYCQHSREVPWTFGGGTKLEIKR
modifications: val-cit-MMAF drug-linker, average of four per antibody (positions not stated)
IC50 (ng/mL), cytotoxicity on Hs445 cells (human CD70 [2]): 7.3 ng/mL | IC50 (ng/mL), cytotoxicity on KMH2 cells (human CD70 [2]): 0.41 ng/mL | IC50 (ng/mL), cytotoxicity on L428 cells (human CD70 [2]): 1.4 ng/mL | IC50 (ng/mL), cytotoxicity on RPMI-6666 cells (human CD70 [2]): 42 ng/mL | IC50 (ng/mL), cytotoxicity on SUP-HD-1 cells (human CD70 [2]): 6.3 ng/mL | IC50 (ng/mL), cytotoxicity on AMO-1 cells (human CD70 [3]): 16 ng/mL | IC50 (ng/mL), cytotoxicity on JJN-3 cells (human CD70 [3]): 46 ng/mL | IC50 (ng/mL), cytotoxicity on L363 cells (human CD70 [3]): 78 ng/mL | IC50 (ng/mL), cytotoxicity on LB cells (human CD70 [3]): 80 ng/mL | IC50 (ng/mL), cytotoxicity on LP-1 cells (human CD70 [3]): 160 ng/mL | IC50 (ng/mL), cytotoxicity on MM.1R cells (human CD70 [3]): 13 ng/mL | IC50 (ng/mL), cytotoxicity on MM.1S cells (human CD70 [3]): 20 ng/mL | IC50 (ng/mL), cytotoxicity on MOLP-8 cells (human CD70 [3]): 73 ng/mL | IC50 (ng/mL), cytotoxicity on U266 cells (human CD70 [3]): 1.2 ng/mL | IC50 (ng/mL), cytotoxicity on DBTRG-05MG cells (human CD70 [4]): 2.3 ng/mL | IC50 (ng/mL), cytotoxicity on GMS-10 cells (human CD70 [4]): 27 ng/mL | IC50 (ng/mL), cytotoxicity on SNB-19 cells (human CD70 [4]): 12 ng/mL | IC50 (ng/mL), cytotoxicity on U251 cells (human CD70 [4]): 5.3 ng/mL | IC50 (ng/mL), cytotoxicity on U373MG cells (human CD70 [4]): 16 ng/mL

B3: 1F6-vcMMAF (antibody, V domains shown)
VH: QIQLVQSGPEVKKPGETVKISCKASGYTFTNYGMNWVKQAPGKGLKWMGWINTYTGEPTYADAFKGRFAFSLETSASTAYLQINNLKNEDTATYFCARDYGDYGMDYWGQGTSVTVSS
VL: DIVLTQSPASLAVSLGQRATISCRASKSVSTSGYSFMHWYQQKPGQPPKLLIYLASNLESGVPARFSGSGSGTDFTLNIHPVEEEDAATYYCQHSREVPWTFGGGTKLEIKR
modifications: MC-Val-Cit-PAB-MMAF on cysteine thiols of the DTT-reduced antibody (positions not stated)
IC50, cytotoxicity (alamarBlue) on CD70+ RCC lines (human CD70 [1]): < 0.03 µg/mL | IC50, proliferation inhibition of all CD70+ RCC lines tested (human CD70 [1]): < 0.03 µg/mL

B4: anti-human CD70 monoclonal antibody 1F6 (antibody, mouse IgG1, V domains shown)
VH: QIQLVQSGPEVKKPGETVKISCKASGYTFTNYGMNWVKQAPGKGLKWMGWINTYTGEPTYADAFKGRFAFSLETSASTAYLQINNLKNEDTATYFCARDYGDYGMDYWGQGTSVTVSS
VL: DIVLTQSPASLAVSLGQRATISCRASKSVSTSGYSFMHWYQQKPGQPPKLLIYLASNLESGVPARFSGSGSGTDFTLNIHPVEEEDAATYYCQHSREVPWTFGGGTKLEIKR
notes: Murine hybridoma mAb from the Netherlands Red Cross Blood Transfusion Service; they were cloned with mouse IgG1 and kappa gene-specific primers; Used AlexaFluor488-conjugated for flow cytometry where necessary; also called mAb 1F6; AF-conjugated 1F6
binding result (human CD70 [5]): binds

B5: 1F6-vcMMAE (antibody, V domains shown)
VH: QIQLVQSGPEVKKPGETVKISCKASGYTFTNYGMNWVKQAPGKGLKWMGWINTYTGEPTYADAFKGRFAFSLETSASTAYLQINNLKNEDTATYFCARDYGDYGMDYWGQGTSVTVSS
VL: DIVLTQSPASLAVSLGQRATISCRASKSVSTSGYSFMHWYQQKPGQPPKLLIYLASNLESGVPARFSGSGSGTDFTLNIHPVEEEDAATYYCQHSREVPWTFGGGTKLEIKR
modifications: maleimidocaproyl-val-cit-PAB-MMAE on cysteine thiols of the DTT-reduced antibody (positions not stated)
IC50, proliferation of Caki-1 cells (human CD70 [1]): < 0.02 µg/mL | IC50, proliferation of Caki-2 cells (human CD70 [1]): < 0.02 µg/mL

B6: chimeric 1F6 (c1F6)-mcMMAF4 (antibody, V domains shown)
VH: QIQLVQSGPEVKKPGETVKISCKASGYTFTNYGMNWVKQAPGKGLKWMGWINTYTGEPTYADAFKGRFAFSLETSASTAYLQINNLKNEDTATYFCARDYGDYGMDYWGQGTSVTVSS
VL: DIVLTQSPASLAVSLGQRATISCRASKSVSTSGYSFMHWYQQKPGQPPKLLIYLASNLESGVPARFSGSGSGTDFTLNIHPVEEEDAATYYCQHSREVPWTFGGGTKLEIKR
modifications: maleimidocaproyl-MMAF drug-linker, average of four per antibody (positions not stated)
IC50 (ng/mL), cytotoxicity on Hs445 cells (human CD70 [2]): 310 ng/mL | IC50 (ng/mL), cytotoxicity on KMH2 cells (human CD70 [2]): 5.2 ng/mL | IC50 (ng/mL), cytotoxicity on L428 cells (human CD70 [2]): 35 ng/mL | IC50 (ng/mL), cytotoxicity on RPMI-6666 cells (human CD70 [2]): 230 ng/mL | IC50 (ng/mL), cytotoxicity on SUP-HD-1 cells (human CD70 [2]): 53 ng/mL | IC50 (ng/mL), cytotoxicity on AMO-1 cells (human CD70 [3]): 38 ng/mL | IC50 (ng/mL), cytotoxicity on JJN-3 cells (human CD70 [3]): 61 ng/mL | IC50 (ng/mL), cytotoxicity on L363 cells (human CD70 [3]): 210 ng/mL | IC50 (ng/mL), cytotoxicity on LB cells (human CD70 [3]): 500 ng/mL | IC50 (ng/mL), cytotoxicity on LP-1 cells (human CD70 [3]): 155 ng/mL | IC50 (ng/mL), cytotoxicity on MM.1R cells (human CD70 [3]): 20 ng/mL | IC50 (ng/mL), cytotoxicity on MM.1S cells (human CD70 [3]): 22 ng/mL | IC50 (ng/mL), cytotoxicity on MOLP-8 cells (human CD70 [3]): 33 ng/mL | IC50 (ng/mL), cytotoxicity on U266 cells (human CD70 [3]): 1.7 ng/mL | IC50 (ng/mL), cytotoxicity on DBTRG-05MG cells (human CD70 [4]): 20 ng/mL | IC50 (ng/mL), cytotoxicity on GMS-10 cells (human CD70 [4]): 110 ng/mL | IC50 (ng/mL), cytotoxicity on SNB-19 cells (human CD70 [4]): 27 ng/mL | IC50 (ng/mL), cytotoxicity on U251 cells (human CD70 [4]): 15 ng/mL | IC50 (ng/mL), cytotoxicity on U373MG cells (human CD70 [4]): 35 ng/mL

B7: anti-human CD70 monoclonal antibody 2F2 (antibody, mouse IgG1, V domains shown)
VH: QVQLQQSGTELMTPGASVTMSCKTSGYTFSTYWIEWVKQRPGHGLEWIGEILGPSGYTDYNEKFKAKATFTADTSSNTAYMQLSSLASEDSAVYYCARWDRLYAMDYWGGGTSVTVSS
VL: DIVLTQSPASLTVSLGQKTTISCRASKSVSTSGYSFMHWYQLKPGQSPKLLIYLASDLPSGVPARFSGSGSGTDFTLKIHPVEEEDAATYYCQHSREIPYTFGGGTKLEITR
notes: Murine hybridoma mAb; they were cloned with mouse IgG1 and kappa gene-specific primers; also called mAb 2F2
binding result (human CD70 [6]): binds
